Key:
Experiment in all cases: HPLC glucosylation assay, nonlinear fit (GraphPad Prism)
Assay type in all cases: biochemical, Marchantia polymorpha
[1] = substrate: O=C(CCc1ccc(O)cc1)c1c(O)cc(O)cc1O; conditions: UDP-glucose as donor, Tris-HCl, optimal pH (7.0-7.5), 30 °C, 12 min
Excerpt: (§1) HPLC glucosylation assay, nonlinear fit (GraphPad Prism) on MpUGT737B1

[2] = substrate: Oc1ccc(CCc2cc(O)cc(O)c2)cc1; conditions: UDP-glucose as donor, Tris-HCl, optimal pH (7.0-7.5), 30 °C, 12 min
Excerpt: as §1

[3] = substrate: Oc1ccc(CCc2cccc(O)c2)cc1; conditions: UDP-glucose as donor, Tris-HCl, optimal pH (7.0-7.5), 30 °C, 12 min
Excerpt: as §1

[4] = substrate: Oc1ccc(CCc2cccc(O)c2)cc1; conditions: UDP-glucose as donor; Tris-HCl, optimal pH (7.0), optimal temperature (25-30 °C), 12 min
Excerpt: HPLC glucosylation assay, nonlinear fit (GraphPad Prism) on MpUGT741A1

Protein | Km [1] | Vmax [1] | kcat [1] | kcat/Km [1] | Km [2] | Vmax [2] | kcat [2] | kcat/Km [2] | Km [3] | Vmax [3] | kcat [3] | kcat/Km [3] | Km [4] | Vmax [4] | kcat [4] | kcat/Km [4]
MpUGT737B1 (Marchantia polymorpha) (protein, full-length ORF (1443 bp, 480 residues) in pET32a(+), N-terminal Trx-S-His tag, E. coli BL21(DE3), purified) MELTNGTTRRAHVLMVCVPFPGHVAPFTQLLYHLSCHENLKVTVMGHKARNAEMIKLYEKGEFKGLDIHFETIFADPPVYPSDPKFPIRAALCADQMFVEFEPIRRRLVAEKDNVGAPTSIICDMFLWFTKDAADEMGVPWYPFFSTSQWFGYCAYIGDELARRNFHPHHSEEKDQRIDITGLEFAYVHDIPSEVLEFPEFYAKVTDRSFRATGILCNTAYELEGSAGTLMATKALVQRSGKKNLKGEEAQIIPVGPIAQIPGFGVQYSLRDQPYECLKWLNAHTEKSVLYIAFGSLGNIVPEVFHELALGLEAGGVPFLWALKLTPAQKEELLPEGFLERIQSSGMGFIESGWAPQTQILMHPAVGGFLSHCGWNSTLESLCAGVPMITWPLSADQPMNARFLVDVKKVAVTVLSGSADESVVTHDDISKAIKRLFGDEEGKQIAKNSLELKKLLASLVAEGGSTYKALRYFIQDLVMV | 50.2 ± 10.6 µM | 0.07 µmol/min/mg | 0.062 ± 0.005 s⁻¹ | 1240 M⁻¹ s⁻¹ | 45.6 ± 9.7 µM | 0.1 µmol/min/mg | 0.089 ± 0.006 s⁻¹ | 1960 M⁻¹ s⁻¹ | 39.3 ± 7.5 µM | 0.0373 µmol/min/mg | 0.033 ± 0.002 s⁻¹ | 846 M⁻¹ s⁻¹ | – | – | – | –
MpUGT741A1 (Marchantia polymorpha) (protein, full-length ORF (1392 bp, 463 residues) in pET32a(+), N-terminal Trx-S-His tag, E. coli BL21(DE3), purified) MGSHVERPPRALLFPVVASGHWGPFLQLILQLATKKLNFTLLADRGRCDELKAYQAKGAFATLDVEFLEVYTDPSTLSLRKDLVPAMWTNLESFISNGEFDPSRYTCMISDMFLYFCQDLADKWGIPNYFYVTCPTYFGLVLLHGEGIVDGGWIPQNPVKRKQFLDLPGLEMFTGGDMPMALTEMEPDLFHLLPRAIKGSAGLVFNSFEEFEKKPLSDLRDQLKLNAMPGKGPPTVFTIGPLLLLPGIPGALDDTKPVEKSESIAWLDKQQKSSVLFICFGSQRELPEPLITGIASGLEDTGVPFLWALRIPPQSSKIESLPEGFESRTQSRGLVLTSWVPQQEILLHPSVGGFLTHCGWNSILESMLGGVPIAAFPLYAEQRMNQRYMVNAVKTAVAIEGEHGQYEAKEIAAAIMRLLKGKEGVEARQNMQIMKEMAYAAMEEGGSSHKNLQNFLAEVQRVR | – | – | – | – | – | – | – | – | – | – | – | – | 89.2 ± 17.6 µM | 0.15 µmol/min/mg | 0.124 ± 0.012 s⁻¹ | 1500 M⁻¹ s⁻¹
